Data published in patent US20250368742A1.
Like-named read-outs stand apart in the source and are kept apart here. One block for each binder: values may come before it.

Tests used:
[1] = molecular target: human MICB005 on cells (human); assay: flow cytometry on CHO-MICB005 cells; column HSA_2w (2 weeks in human serum at 37 C)
[2] = molecular target: human MICB005 on cells (human); assay: flow cytometry on CHO-MICB005 cells; column HSA_1w (1 week in human serum at 37 C)
[3] = molecular target: human MICB005 on cells (human); assay: flow cytometry on CHO-MICB005 cells; column Control_2w (control of the 2-week experiment)
[4] = molecular target: human MICB005 on cells (human); assay: flow cytometry on CHO-MICB005 cells; column Control_1w (control of the 1-week experiment)
[5] = molecular target: human MICA004 on cells (human); assay: flow cytometry, CHO cells, panel headed MICA004
[6] = molecular target: human MICA008 on cells (human); assay: flow cytometry, HeLa cells (MICA008)
[7] = molecular target: shed MICA002 polypeptide (human) (UniProt Q29983); assay: capture ELISA (anti-hFc / antibody / shed antigen / biotin-6D4)
[8] = molecular target: shed MICA008 polypeptide (human) (UniProt Q29983); assay: as above
[9] = molecular target: shed MICB005 polypeptide (human) (UniProt Q29980); assay: as above
[10] = molecular target: shed MICA004 polypeptide (human) (UniProt Q29983); assay: as above
[11] = molecular target: shed MICA002 polypeptide (human) (UniProt Q29983); assay: as above; remark: listed apart in the source
[12] = molecular target: shed MICA008 polypeptide (human) (UniProt Q29983); assay: as above; remark: listed apart in the source
[13] = molecular target: shed MICB005 polypeptide (human) (UniProt Q29980); assay: as above; remark: listed apart in the source
[14] = molecular target: shed MICA004 polypeptide (human) (UniProt Q29983); assay: as above; remark: listed apart in the source
[15] = molecular target: shed MICA002 polypeptide (human) (UniProt Q29983); assay: as above; remark: listed apart in the source
[16] = molecular target: shed MICA008 polypeptide (human) (UniProt Q29983); assay: as above; remark: listed apart in the source
[17] = molecular target: shed MICB005 polypeptide (human) (UniProt Q29980); assay: as above; remark: listed apart in the source
[18] = molecular target: shed MICA004 polypeptide (human) (UniProt Q29983); assay: as above; remark: listed apart in the source
[19] = molecular target: shed MICA002 polypeptide (human) (UniProt Q29983); assay: ELISA: antibody titrated on anti-hFc plate, shed MICA002 captured, detection NKG2D-His + anti-His-HRP
[20] = molecular target: shed MICA002 polypeptide (human) (UniProt Q29983); assay: capture ELISA (anti-hFc / antibody / shed antigen / biotin-6D4); remark: listed apart in the source
[21] = molecular target: shed MICA008 polypeptide (human) (UniProt Q29983); assay: as above; remark: listed apart in the source
[22] = molecular target: shed MICB005 polypeptide (human) (UniProt Q29980); assay: as above; remark: listed apart in the source
[23] = molecular target: shed MICA004 polypeptide (human) (UniProt Q29983); assay: as above; remark: listed apart in the source
[24] = molecular target: shed MICA004 polypeptide (human) (UniProt Q29983); assay: ELISA: antibody titrated on anti-hFc plate, shed MICA004 captured, detection NKG2D-His + anti-His-HRP

EC50 [1]: 0.32 µg/mL
EC50 [2]: 0.26 µg/mL
EC50 [3]: 0.314 µg/mL
EC50 [4]: 0.295 µg/mL
B1: h36B3GS (antibody, V domains shown)
VH: QVQLVQSGAEVKKPGASVKVSCKASGYAFTKYNFYWVRQAPGQGLEWIGYIDPYFGGTVYNQKFKGKATLTVDKSTSTAYMELRSLRSDDTAVYYCATTDSYSLFTYWGQGTLVTVSS
VL: DIQMTQSPSSLSASVGDRVTITCRASQDISNYLNWYQQTPGKAVKLLIYYTSRLHSGVPSRFSGSGSGTDYTLTISSLQPEDIATYFCLQGNTLPFTFGQGTKLEIK

EC50 (read off the curve) [5]: 0.5 µg/mL
EC50 (read off the curve) [6]: 0.4 µg/mL
B2: h36B3GA (antibody, V domains shown)
VH: QVQLVQSGAEVKKPGASVKVSCKASGYAFTKYNFYWVRQAPGQGLEWIGYIDPYFGGTVYNQKFKGKATLTVDKSTSTAYMELRSLRSDDTAVYYCATTDAYSLFTYWGQGTLVTVSS
VL: DIQMTQSPSSLSASVGDRVTITCRASQDISNYLNWYQQTPGKAVKLLIYYTSRLHSGVPSRFSGSGSGTDYTLTISSLQPEDIATYFCLQGNTLPFTFGQGTKLEIK

EC50 [7]: 0.025 µg/mL
maxOD [7]: 4.5
EC50 [8]: 0.037 µg/mL
maxOD [8]: 1.67
EC50 [9]: 0.043 µg/mL
maxOD [9]: 3.83
EC50 [10]: 0.035 µg/mL
maxOD [10]: 2.8
EC50 [11]: 0.019 µg/mL
Max OD450 [11]: 1.93
EC50 [12]: 0.024 µg/mL
Max OD450 [12]: 1.26
EC50 [13]: 0.026 µg/mL
Max OD450 [13]: 1.43
EC50 [14]: 0.023 µg/mL
Max OD450 [14]: 2.01
EC50 [15]: 0.032 µg/mL
Max OD450 [15]: 1.86
EC50 [16]: 0.035 µg/mL
Max OD450 [16]: 1.39
EC50 [17]: 0.035 µg/mL
Max OD450 [17]: 1.54
EC50 [18]: 0.018 µg/mL
Max OD450 [18]: 1.94
EC50 [19]: 0.071 µg/mL
EC50 [20]: 0.02 µg/mL
Max OD450 [20]: 3.42
EC50 [21]: 0.03 µg/mL
Max OD450 [21]: 0.41
EC50 [22]: 0.02 µg/mL
Max OD450 [22]: 2.81
EC50 [23]: 0.02 µg/mL
Max OD450 [23]: 2.76
EC50 [24]: 0.056 µg/mL
B3: 1D5 (antibody, human IgG1, kappa, V domains shown)
VH: EIQLQQSGPELVKPGASVKVSCKASGYAFTSQNIYWVKQSHGKSLEWIGYIEPYNVVPMYNPKFKGKATLTVDKSSSSAYIHLNSLTSEDSAIYYCARSGSSNFDYWGQGTTLTVSS
VL: EIILTQSPTTMAASPGEKITITCSASSSISSHYLHWYQQKSGFSPKLLIYRTSNLASGVPARFSGSGSGTSYSLTIGTMEAEDVATYYCQQGSSLPLTFGAGTKVEIKR
